Reference: patent publication US20170081400A1 (CEPHALON, published 2017)
Numbering of substitutions follows the chain as printed.

Experiments:
[1] = molecular target: T1, human TL1A extracellular domain with N-terminal HIS and FLAG tag (human, UniProt O95150 72-251); assay: SPR run 3; supernatant on Protein A; TL1A 10 ug/mL; timepoint 59
T1 construct: whole entry named. ~70 kDa fraction purified by gel filtration
T1 sequence: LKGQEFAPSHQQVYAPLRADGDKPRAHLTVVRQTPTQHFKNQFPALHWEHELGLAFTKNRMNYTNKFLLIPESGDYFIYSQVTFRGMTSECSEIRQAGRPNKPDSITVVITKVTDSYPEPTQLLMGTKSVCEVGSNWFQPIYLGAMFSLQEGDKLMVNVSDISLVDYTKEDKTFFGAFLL
Excerpt: (§1) 1.5. Antibody expression and antigen binding as determined by SPR. Using a CM5 sensor chip (GE Healthcare) Protein A (Pierce) was coupled to the chip surface using an amine coupling kit (GE Healthcare). Protein A was coupled on flow cell 1 and 2 (or alternatively 3 and 4) using a BIACORE® T200. […] The amount of supernatant or purified protein (as well as the concentration) injected during the capture stage varied between runs and is specified in the header of the Tables 3-11. At the end of injection of the supernatant or purified antibody the change in response units was measured. This value was reported as Capture Level in Tables 3-11. […] The response units were measured prior to the end of the dissociation phase. […] The sensorgrams were double referenced (flow cell 2 is subtracted from flow cell 1 and a buffer blank). As there were a large number of antibody variants to screen, these were screened across different runs (Tables 3-11). […] A summary of the conditions used in each run is below:
(§2) 2.1. […] In some experiment the antibodies were purified using Protein A chromatography (See 1.4) and purified antibodies were used in BIACORE® (GE Healthcare) experiments.

[2] = molecular target: T1, human TL1A extracellular domain with …; assay: SPR run 3; supernatant on Protein A; TL1A 10 ug/mL; timepoint 590
Excerpt: as §1, §2

B1: 320-256 (antibody, human IgG1, name in Kabat numbering, V domains shown)
VH: QVQLVQSGAEVKKPGASVKVSCKASGYTFTSYDINWVRQAPGQGLEWMGWLNPNSGNTGYAQKFQGRVTMTADRSTSTAYMELSSLRSEDTAVYYCAREVPETAAFEYWGQGTLVTVSS
VL: QSVLTQPPSVSGAPGQRVTISCTSSSSDILAGLGVHWYQQLPGTAPKLLIEGYYNRPSGVPDRFSGSKSGTSASLTITGLLPEDEGDYYCQSYDGTLSALFGGGTKLTVLG
notes: human IgG1, lambda
- TL1A Binding Level (Early) [1]: 30 RU
- TL1A Binding Level (Late) [2]: 10 RU

B2: 320-303 (antibody, human IgG1, name in Kabat numbering, V domains shown)
VH: B1 VH
VL: B1 VL with L30G, H36S
notes: human IgG1, lambda
- TL1A Binding Level (Early) [1]: 71 RU
- TL1A Binding Level (Late) [2]: 32 RU

B3: 320-293 (antibody, human IgG1, name in Kabat numbering, V domains shown)
VH: B1 VH
VL: B1 VL with L30G, V35A
notes: human IgG1, lambda
- TL1A Binding Level (Early) [1]: 104 RU
- TL1A Binding Level (Late) [2]: 86 RU

B4: 320-268 (antibody, human IgG1, name in Kabat numbering, V domains shown)
VH: B1 VH
VL: B1 VL with L30G, G32S
notes: human IgG1, lambda
- TL1A Binding Level (Early) [1]: 28 RU
- TL1A Binding Level (Late) [2]: 7 RU

B5: 320-261 (antibody, human IgG1, name in Kabat numbering, V domains shown)
VH: B1 VH
VL: B1 VL with L30G, A31D
notes: human IgG1, lambda
- TL1A Binding Level (Early) [1]: 86 RU
- TL1A Binding Level (Late) [2]: 29 RU

B6: 320-310 (antibody, human IgG1, name in Kabat numbering, V domains shown)
VH: B1 VH
VL: B1 VL with L30G, Q91A
notes: human IgG1, lambda
- TL1A Binding Level (Early) [1]: 70 RU
- TL1A Binding Level (Late) [2]: 62 RU

B7: 320-282 (antibody, human IgG1, name in Kabat numbering, V domains shown)
VH: B1 VH
VL: B1 VL with L30G, L33W
notes: human IgG1, lambda
- TL1A Binding Level (Early) [1]: 75 RU
- TL1A Binding Level (Late) [2]: 16 RU

B8: 320-265 (antibody, human IgG1, name in Kabat numbering, V domains shown)
VH: B1 VH
VL: B1 VL with L30G, A31W
notes: human IgG1, lambda
- TL1A Binding Level (Early) [1]: 168 RU
- TL1A Binding Level (Late) [2]: 69 RU

B9: 320-269 (antibody, human IgG1, name in Kabat numbering, V domains shown)
VH: B1 VH
VL: B1 VL with L30G, G32Q
notes: human IgG1, lambda
- TL1A Binding Level (Early) [1]: 126 RU
- TL1A Binding Level (Late) [2]: 93 RU

B10: 320-296 (antibody, human IgG1, name in Kabat numbering, V domains shown)
VH: B1 VH
VL: B1 VL with L30G, V35D
notes: human IgG1, lambda
- TL1A Binding Level (Early) [1]: 118 RU
- TL1A Binding Level (Late) [2]: 104 RU

B11: 320-294 (antibody, human IgG1, name in Kabat numbering, V domains shown)
VH: B1 VH
VL: B1 VL with L30G, V35S
notes: human IgG1, lambda
- TL1A Binding Level (Early) [1]: 79 RU
- TL1A Binding Level (Late) [2]: 61 RU

B12: 320-292 (antibody, human IgG1, name in Kabat numbering, V domains shown)
VH: B1 VH
VL: B1 VL with L30G, G34Y
notes: human IgG1, lambda
- TL1A Binding Level (Early) [1]: 111 RU
- TL1A Binding Level (Late) [2]: 94 RU

B13: 320-262 (antibody, human IgG1, name in Kabat numbering, V domains shown)
VH: B1 VH
VL: B1 VL with L30G, A31H
notes: human IgG1, lambda
- TL1A Binding Level (Early) [1]: 209 RU
- TL1A Binding Level (Late) [2]: 190 RU

B14: 320-276 (antibody, human IgG1, name in Kabat numbering, V domains shown)
VH: B1 VH
VL: B1 VL with L30G, L33A
notes: human IgG1, lambda
- TL1A Binding Level (Early) [1]: 244 RU
- TL1A Binding Level (Late) [2]: 215 RU

B15: 320-298 (antibody, human IgG1, name in Kabat numbering, V domains shown)
VH: B1 VH
VL: B1 VL with L30G, V35K
notes: human IgG1, lambda
- TL1A Binding Level (Early) [1]: 114 RU
- TL1A Binding Level (Late) [2]: 100 RU

B16: 320-306 (antibody, human IgG1, name in Kabat numbering, V domains shown)
VH: B1 VH
VL: B1 VL with L30G, H36K
notes: human IgG1, lambda
- TL1A Binding Level (Early) [1]: 147 RU
- TL1A Binding Level (Late) [2]: 133 RU

B17: 320-267 (antibody, human IgG1, V domains shown)
VH: B1 VH
VL: B1 VL with L30G, G32A
notes: human IgG1, lambda
- TL1A Binding Level (Early) [1]: 299 RU
- TL1A Binding Level (Late) [2]: 297 RU

B18: 320-275 (antibody, human IgG1, name in Kabat numbering, V domains shown)
VH: B1 VH
VL: B1 VL with L30G, G32Y
notes: human IgG1, lambda
- TL1A Binding Level (Early) [1]: 44 RU
- TL1A Binding Level (Late) [2]: 10 RU

B19: 320-295 (antibody, human IgG1, name in Kabat numbering, V domains shown)
VH: B1 VH
VL: B1 VL with L30G, V35Q
notes: human IgG1, lambda
- TL1A Binding Level (Early) [1]: 109 RU
- TL1A Binding Level (Late) [2]: 94 RU

B20: 320-260 (antibody, human IgG1, name in Kabat numbering, V domains shown)
VH: B1 VH
VL: B1 VL with L30G, A31Q
notes: human IgG1, lambda
- TL1A Binding Level (Early) [1]: 182 RU
- TL1A Binding Level (Late) [2]: 165 RU

B21: 320-259 (antibody, human IgG1, name in Kabat numbering, V domains shown)
VH: B1 VH
VL: B1 VL with L30G, A31S
notes: human IgG1, lambda
- TL1A Binding Level (Early) [1]: 194 RU
- TL1A Binding Level (Late) [2]: 179 RU

B22: 320-266 (antibody, human IgG1, name in Kabat numbering, V domains shown)
VH: B1 VH
VL: B1 VL with L30G, A31Y
notes: human IgG1, lambda
- TL1A Binding Level (Early) [1]: 218 RU
- TL1A Binding Level (Late) [2]: 192 RU

B23: 320-309 (antibody, human IgG1, name in Kabat numbering, V domains shown)
VH: B1 VH
VL: B1 VL with L30G, H36Y
notes: human IgG1, lambda
- TL1A Binding Level (Early) [1]: 47 RU
- TL1A Binding Level (Late) [2]: 40 RU

B24: 320-308 (antibody, human IgG1, name in Kabat numbering, V domains shown)
VH: B1 VH
VL: B1 VL with L30G, H36W
notes: human IgG1, lambda
- TL1A Binding Level (Early) [1]: 106 RU
- TL1A Binding Level (Late) [2]: 73 RU

B25: 320-279 (antibody, human IgG1, name in Kabat numbering, V domains shown)
VH: B1 VH
VL: B1 VL with L30G, L33D
notes: human IgG1, lambda
- TL1A Binding Level (Early) [1]: 144 RU
- TL1A Binding Level (Late) [2]: 128 RU

B26: 320-304 (antibody, human IgG1, name in Kabat numbering, V domains shown)
VH: B1 VH
VL: B1 VL with L30G, H36Q
notes: human IgG1, lambda
- TL1A Binding Level (Early) [1]: 103 RU
- TL1A Binding Level (Late) [2]: 82 RU

B27: 320-299 (antibody, human IgG1, name in Kabat numbering, V domains shown)
VH: B1 VH
VL: B1 VL with L30G, V35L
notes: human IgG1, lambda
- TL1A Binding Level (Early) [1]: 51 RU
- TL1A Binding Level (Late) [2]: 13 RU

B28: 320-264 (antibody, human IgG1, name in Kabat numbering, V domains shown)
VH: B1 VH
VL: B1 VL with L30G, A31L
notes: human IgG1, lambda
- TL1A Binding Level (Early) [1]: 199 RU
- TL1A Binding Level (Late) [2]: 184 RU

B29: 320-277 (antibody, human IgG1, V domains shown)
VH: B1 VH
VL: B1 VL with L30G, L33S
notes: human IgG1, lambda
- TL1A Binding Level (Early) [1]: 387 RU
- TL1A Binding Level (Late) [2]: 361 RU

B30: 320-305 (antibody, human IgG1, name in Kabat numbering, V domains shown)
VH: B1 VH
VL: B1 VL with L30G, H36D
notes: human IgG1, lambda
- TL1A Binding Level (Early) [1]: 34 RU
- TL1A Binding Level (Late) [2]: 10 RU

B31: 320-271 (antibody, human IgG1, name in Kabat numbering, V domains shown)
VH: B1 VH
VL: B1 VL with L30G, G32H
notes: human IgG1, lambda
- TL1A Binding Level (Early) [1]: 106 RU
- TL1A Binding Level (Late) [2]: 30 RU

B32: 320-281 (antibody, human IgG1, name in Kabat numbering, V domains shown)
VH: B1 VH
VL: B1 VL with L30G, L33K
notes: human IgG1, lambda
- TL1A Binding Level (Early) [1]: 22 RU
- TL1A Binding Level (Late) [2]: 6 RU

B33: 320-257 (antibody, human IgG1, name in Kabat numbering, V domains shown)
VH: B1 VH
VL: B1 VL with L30W
notes: human IgG1, lambda
- TL1A Binding Level (Early) [1]: 83 RU
- TL1A Binding Level (Late) [2]: 18 RU

B34: 320-278 (antibody, human IgG1, V domains shown)
VH: B1 VH
VL: B1 VL with L30G, L33Q
notes: human IgG1, lambda
- TL1A Binding Level (Early) [1]: 389 RU
- TL1A Binding Level (Late) [2]: 374 RU
